Laboratory results published in US20190062389A1 (CYTLIMIC, published 2019).

B1: GPC3-derived peptide ARLNMEQLL (SEQ ID NO: 11) (peptide)
peptide: ARLNMEQLL
notes: Synthetic peptide; only the start position in GPC3 is printed
B2: GPC3-derived peptide ALNLGIEVI (SEQ ID NO: 7) (peptide)
peptide: ALNLGIEVI
notes: as for B1
B3: GPC3-derived peptide MVNELFDSL (SEQ ID NO: 1) (peptide)
peptide: MVNELFDSL
notes: Synthesized by Fmoc solid-phase method, purity 95% or more; the end is derived from the length of 9
B4: GPC3-derived peptide KLTTTIGKL (SEQ ID NO: 9) (peptide)
peptide: KLTTTIGKL
notes: as for B1
B5: GPC3-derived peptide GYICSHSPV (SEQ ID NO: 6) (peptide)
peptide: GYICSHSPV
notes: as for B1
B6: GPC3-derived peptide LLQSASMEL (SEQ ID NO: 8) (peptide)
peptide: LLQSASMEL
notes: as for B1
B7: GPC3-derived peptide SALDINECL (SEQ ID NO: 3) (peptide)
peptide: SALDINECL
notes: as for B1
B8: GPC3-derived peptide GMIKVKNQL (SEQ ID NO: 10) (peptide)
peptide: GMIKVKNQL
notes: as for B1
B9: GPC3-derived peptide SLQVTRIFL (SEQ ID NO: 4) (peptide)
peptide: SLQVTRIFL
notes: as for B1
B10: GPC3-derived peptide LFDSLFPVI (SEQ ID NO: 2) (peptide)
peptide: LFDSLFPVI
notes: as for B1

What was measured:
[1] = target: HLA-A*02:06 molecule (product of HLA-A*02:06 gene) on RA2.6 cells (human); test: flow cytometry, RA2.6 cells, peptide dilution series, BB7.2 staining
Method: First, the RA2.6 cells were cultured overnight at 26° C. to accumulate the HLA-A*02:06 molecules unbound to the peptide on the cell surface. Any of peptide dilution series was added thereto for binding at 26° C. for 60 minutes.
Subsequently, the mixture was cultured at 35° C. for 4 hours, resulting in the denaturation of the empty HLA-A*02:06 molecule unbound to the peptide and the loss of its steric structure. A fluorescent labeled monoclonal antibody, BB7.2, specifically recognizing a peptide-bound HLA-A*02:06 molecule, was added thereto, which was then incubated on ice for 20 minutes to stain the cells.
(§1) Thereafter, the amount of fluorescence per cell was measured using a flow cytometer, and the dissociation constant, Kd value, was calculated using a method as published in a paper by the present inventor (Udaka et al., Immunogenetics, 51, 816-828, 2000).

[2] = target: T1, HLA-A*02:01 molecule (product of HLA-A*02:01 gene) on T2 cells (human); test: flow cytometry, T2 cells with added b2m, peptide dilution series, BB7.2 staining
T1 construct: MHC class I molecule on TAP-deficient T2 cells; stabilisation read with antibody BB7.2
Method: T2 cells and purified β2m were added to stepwise dilution series of a peptide whose binding capacity was to be measured, which was then incubated at 37° C. for 4 hours.
as §1

[3] = target: T2, HLA-A*24:02 molecule (product of HLA-A*24:02 gene) on C1R-A24 cells (human); test: flow cytometry, acid-stripped C1R-A24 cells with added b2m, peptide dilution series, 17A12 staining
T2 construct: MHC class I molecule emptied of peptide; the peptide under test reassembles with heavy chain and added b2m; assembly stained with antibody 17A12
Method: First, C1R-A24 cells were exposed to acidic conditions of pH 3.3 for 30 seconds to dissociate and remove endogenous peptides which were originally bound to the HLA-A*24:02 molecule and a light chain, β2m, which was commonly associated with HLA class I molecules. After neutralization, purified β2m was added to the C1R-A24 cells, which was then added to peptide dilution series. The mixtures were each then incubated on ice for 4 hours. The 3-molecule assembly (MHC-pep) consisting of the HLA-A*24:02 molecule, the peptide, and β2 m which had been reasociated during the incubation was stained with a fluorescent labeled monoclonal antibody, 17A12, recognizing the assembly.
Subsequently, the number of MHC-pep's per C1R-A24 cell (which is proportional to the fluorescent intensity of the above fluorescent antibody) was quantitatively measured using a fluorescent cell analyzer, FACScan (Becton, Dickinson and Company). The binding dissociation constant, Kd value, between the HLA-A*24:02 molecule and the peptide was calculated from the average fluorescent intensity per cell using a method as published in a paper (Udaka et al., Immunogenetics, 51, 816-828, 2000) by the present inventor.

| Binder | Binding Experiment Data (log Kd) [1] | Binding Experiment Data (log Kd) [2] | Binding Experiment Data (log Kd) [3] |
| --- | --- | --- | --- |
| B1 | -2.76 log Kd (concentration unit not printed) | -3.84 log Kd (concentration unit not printed) | -5.2 log Kd (concentration unit not printed) |
| B2 | -4.16 log Kd (concentration unit not printed) | -5.92 log Kd (concentration unit not printed) | -3.96 log Kd (concentration unit not printed) |
| B3 | -6.14 log Kd (concentration unit not printed) | -5.31 log Kd (concentration unit not printed) | -4.7 log Kd (concentration unit not printed) |
| B4 | -5.03 log Kd (concentration unit not printed) | -4.97 log Kd (concentration unit not printed) | -5.21 log Kd (concentration unit not printed) |
| B5 |  |  | -6.55 log Kd (concentration unit not printed) |
| B6 | -5.88 log Kd (concentration unit not printed) | -6.14 log Kd (concentration unit not printed) | -5.49 log Kd (concentration unit not printed) |
| B7 | -6.32 log Kd (concentration unit not printed) |  |  |
| B8 | -3.36 log Kd (concentration unit not printed) | -4.76 log Kd (concentration unit not printed) | -6.9 log Kd (concentration unit not printed) |
| B9 | -5.21 log Kd (concentration unit not printed) | -6.21 log Kd (concentration unit not printed) | -5.34 log Kd (concentration unit not printed) |
| B10 |  | -5.07 log Kd (concentration unit not printed) | -7.43 log Kd (concentration unit not printed) |
